According to the nanobody polyreactivity screen of Harvey et al. (2022):

Assay: yeast display, Sf9 membrane polyspecificity reagent, FACS + sequencing; frameworks hold sequencing errors
Summary of the method: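 Sorting gates, low and high (top ~1%), were placed on anti-HA fluorescence to track expression and on streptavidin fluorescence to track reagent binding. A clone's polyreactivity label is taken from the gate it came out of. The reagent was 10% biotinylated, detergent-solubilized Sf9 membrane, applied for 1 hour at 4 °C to galactose-induced yeast display cells.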

Row | Sequence | polyreactivity (PSR sort gate)
1 | QVKLVESGGCLVQAGCSLSLSCAASGRTFVTYAMGWYRQAPGKEREFVAAISWSGVSTYYADSVKGRFTISRDNAKNTVYLQMNSLKPEDTAVYYCAAKRVRALYGGSEGGYWGQGTQVTVSS | low polyreactivity
2 | QVKLVESGGGIVQAGGSLRLSCAASGIIFARNAMGCYRQAPGKERELVAGINGGRKNYADSVKGSFTISRDNAKNTVYLQMNSLKPEDSAVYYCAARNKGTLYRYGYWGQGTQVTVSS | high polyreactivity
3 | QVKLVESGGGLVHAGGSLRLSCAASGFIFYYYAMGWYRQAPGKERELVAAITSSGGSTYYADSVKGRFTISRDNAKNTVYLQMNSLKPEDTAVYYCNARYVSASRNRGTSRYDYWGQGTQVTVSS | high polyreactivity
4 | QVKLVESGGGLVKAGGILRLSCAASGRTFRRNAMGWYRQPPGKESELVAAISSSGGSTYYADSVKGRFTISRDNAKNTVYLQMNSLKPEDTAVYYCNAYRYYVYDTYDGHGYWGQGTQVTVSS | high polyreactivity
5 | QVKLVESGGGLVQAGASLRLSVAASGNIFSVNTIGTYRQAPGKERELVAAITRRSGRTYYADSVKGRFTISRDNAKNTVFLQMNSLNPEDTAVYYCAASWRGASVIRFDYWGQGTQVTVSS | high polyreactivity
6 | QVKLVESGGGLVQAGGSHRLSCAASGSIFGDYVMGSYRQAPGKEMELVAAINRGGSTYYADSVKGRFTISRDNAKNTVYLQMNSLKPADTAVYYCAAGYPSWYYGYPYDSWGQGTQVTVSS | low polyreactivity
7 | QVKLVESGGGLVQAGGSLRLICAASGMTFVIYAMGWYRQAPGKERELVARNTWSGGSTYYADSEKGRFTISRDNSKNTVYLQMNSLNPEDSAVYYCAARRFYYYTAGYDYWGQGTQVTVSS | low polyreactivity
8 | QVKLVESGGGLVQAGGSLRLSCAASGFIFIDNTMGWYRQEPGKERELVAGINTSGASTHYADSVKGRFTISRDYAKNTVYLQMNSLKPEDTAVYYCNRGDLPKADYNDYSYDYDYRGQGTQVTVSS | low polyreactivity
9 | QVKLVESGGGLVQAGGSLRLSCAASGFIFKANAMGWYRQAPGKETELVAAITWRDGNTNYADSVKGRFTISRDNAKNTVYLQMNSLKPEDTAGYYCAVRLLADDGYPAVVGDDYWGQGTQVTVSS | low polyreactivity
10 | QVKLVESGGGLVQAGGSLRLSCAASGFIFLLYDMGWYRQAPGKERELVAANTSDGTTNYADSVKGRFTISRDNAKNTVYLQMNSLKPEDTAVYYCAADDEPYVYEVTAYLGYEYWGQGTQVTVSS | high polyreactivity
11 | QVKLVESGGGLVQAGGSLRLSCAASGFTFEEYAMGCYRQSPGKERELVAAISASGGRTYYADSVKRRFTISRDNAKNTVYLQMNSLKPEDTAVYYCAAGYRGRRIMDYWGQGTQVTVSS | high polyreactivity
12 | QVKLVESGGGLVQAGGSLRLSCAASGFTFEYYAMGWYRQAPGKERELVAAIRSDSGTNYADSVKGRFTISRDNAKNTVYLQMNSLKPEDTAVYYCAAPTVVLIDYDYWGQGTQVTVSS | low polyreactivity
13 | QVKLVESGGGLVQAGGSLRLSCAASGFTFSRNTMGWYRQAPGKERELVATISFRGGTTYYADSVKGRFTISRDNAKNTVYLQMNSLKPEDTAVYYCAVKVGFVRLLYHYYYWGQGTQVTVSS | high polyreactivity
14 | QVKLVESGGGLVQAGGSLRLSCAASGFTYSANTMGWSRQAPGKERELVAAITRGGRPYYADSVKGRFTISRDNAKNTVYFQMNSLKPEDTAVYYCAKRATWYTVPREGYWGQGTQVTVSS | high polyreactivity
15 | QVKLVESGGGLVQAGGSLRLSCAASGGTFQPNARGWNRQAPGKERELVAAISWSDGSTYYADSVKGRFTISRDNAKNTVYLQMNSLKPEDTAVYYCAADFTYYDSPYRDYNYESWGQGTQVTVSS | low polyreactivity
16 | QVKLVESGGGLVQAGGSLRLSCAASGIIFQYYAMGWYRQAPGKESELVAAISWSGGSTYYADSVKGRFTISRDNAKNTVYLQMNSLKPEDTAVYYCAARSRSYWPYEGYYWGQGTQVTVSS | low polyreactivity

Row | Sequence | polyreactivity (PSR sort gate)
17 | QVKLVESGGGLVQAGGSLRLSCAASGIIFYRYAMGWYRQAPGKERELVAAISGRTGRTYYADSVKGRFTISRDNAKNTVYLQMNSLKPEDTAVYYCAADYYHYRYQTRLDYWGQGTQVTVSS | high polyreactivity
18 | QVKLVESGGGLVQAGGSLRLSCAASGITIRFNAMGWYRQAPGKERELVPAITSSGGRTYYADSVKVRFTISRDNAKNTVYLQMNSLKPEDTAVYYCAAYYRYSTTEDRSVYRGYYYWGQGTQVTVSS | high polyreactivity
19 | QVKLVESGGGLVQAGGSLRLSCAASGLIFQNYAMVWYRQAPGKERELVAAISRRGGRTNYADSVKGRFTISRDNAKNNVYLQMKSLKPEDTAVYYCNAKARQSYYYRFDYWGQGTQVTVSS | high polyreactivity
20 | QVKLVESGGGLVQAGGSLRLSCAASGLTLQWYALGWYRQAHGKERDLVAAISYNGGDTYYADSVKGRFTISRDNAKNTVYLQMNSLKPEDTAVYYCAAYWYVGVNYSQRRDYWGQGTQVTVSS | low polyreactivity
21 | QVKLVESGGGLVQAGGSLRLSCAASGNTFGGYAMGWYRQAPGKERELVAAISSSGGSTYYADSVKGRFTISRDNAKNTVYLQMNSLKPEDTAVYYCAAYGGFYGYWTMGYWGQGTQVTVSS | high polyreactivity
22 | QVKLVESGGGLVQAGGSLRLSCAASGRIFGYNAMGWYRQAPGKERELVAAISRSGGTTYYADSVKGRFTISRDNSKNTVNLQMNRLKPEDTEVYYCAAYYRTRVPYDMDYWGQGTQVTVSS | high polyreactivity
23 | QVKLVESGGGLVQAGGSLRLSCAASGRIFQPYAMGWYRQAPGKERELVADITYRDGSTYFADSVKGRFTISRDNAKNTVYLQMNSLKPEDTAVYYCNADGEYAKDDWFHWYDYWGQGTQVTVSS | high polyreactivity
24 | QVKLVESGGGLVQAGGSLRLSCAASGRIFSGYAMGWYIQAPGKESEFVAAITWNGVSTYYADSVKVRFTISRDNAKNTVYLLMNSLKPEDTAVYYCAKDYVYYPSYRGSVNYWGQGTQVTVSS | low polyreactivity
25 | QVKLVESGGGLVQAGGSLRLSCAASGRTFGYNAMGWYRQAPGKERELVASINWSGGRTYYADSVKGRFTISRDNAKNTVYLQMYSLKPEDTAVYYCAKGFTRVQQQYQYLFGYWGQGTQVTVSS | low polyreactivity
26 | QVKLVESGGGLVQAGGSLRLSCAASGRTFINYAMGWYRQAPGKERELVAAITTGGRTNYADSVKGRFTISRDNSKNTVYLQMNSLKPEDTEVYYCAADRYDWGRNTLNYWGQGTQVTVSS | low polyreactivity
27 | QVKLVESGGGLVQAGGSLRLSCAASGRTFYINAMGWYRQAPGKERELVAAISRVGSTNYADSVKGRFTISRDNAKNTVYLQMNSLKPEDTEVYYCAARSRGGRRYYYWGQGSQVTVSS | high polyreactivity
28 | QVKLVESGGGLVQAGGSLRLSCAASGSTFYQNAMGWYRQAQGKEREFVAAISGSGDRTNYADSVKARFTISRDNAKNTVYLQMNSLKPEDTAVYFCAARGQPGRRTSSGFFSGGYCGQGTQVTVSS | high polyreactivity
29 | QVKLVESGGGLVQAGGSLRLSCAASVRIFALNTMGWYREAPGKERELDAAISYRGGSTYYADSVKGRFTISRDNAKTTVYLQMNSLKPEDTAVYYCAARCYSYSRRYGYDYWGQGTQVTVSS | high polyreactivity
30 | QVKLVESGGGLVQAGGSLRLSCADSGLIFYKYAMGWYRKAPGKERELVAAITSGGSTNYADSVKGRFTISRDNAKNTVYLQMNSLKPEDTAVYYCNADYNHYLVVRWWYPPVDYWGQGTQVTVSS | low polyreactivity
31 | QVKLVESGGGLVQAGGSLRLSFAASAGTFNSYAKGWYRQEPGKERELVATISYSGGSTYYADSVKGRFTISRDNAKYTVYLQMNSLKPEDTAVYYCAKVRYYPYSPGGLDYWGQGTQVTVSS | low polyreactivity
